Measured values from patent US20190345534.
Like-named read-outs stand apart in the source and are kept apart here.

T1: GzmB peptide substrate AIEFDSGc on PEG-coated iron oxide nanoparticles (GzmB-sensing synthetic biomarker)
T1 chain: AIEFDSGC


Tests used:
[1] = test system: GzmB peptide substrate AIEFDSGc on PEG-coated iron oxide nanoparticles (GzmB-sensing synthetic biomarker)
[2] = target: T1, GzmB peptide substrate AIEFDSGc on …

Row | Protein | fluorescent intensity (in vitro protease cleavage assay) [1] | fluorescent intensity (in vitro protease cleavage assay) [2] | kcat/KM [2] | rate of cleavage (initial cleavage velocity, fluorescence) [2]
1 | Clr (Sigma) (enzyme, UniProt P00736 18-705, looked up, species assumed) Complement C1r subcomponent: SIPIPQKLFGEVTSPLFPKPYPNNFETTTVITVPTGYRVKLVFQQFDLEPSEGCFYDYVKISADKKSLGRFCGQLGSPLGNPPGKKEFMSQGNKMLLTFHTDFSNEENGTIMFYKGFLAYYQAVDLDECASRSKSGEEDPQPQCQHLCHNYVGGYFCSCRPGYELQEDTHSCQAECSSELYTEASGYISSLEYPRSYPPDLRCNYSIRVERGLTLHLKFLEPFDIDDHQQVHCPYDQLQIYANGKNIGEFCGKQRPPDLDTSSNAVDLLFFTDESGDSRGWKLRYTTEIIKCPQPKTLDEFTIIQNLQPQYQFRDYFIATCKQGYQLIEGNQVLHSFTAVCQDDGTWHRAMPRCKIKDCGQPRNLPNGDFRYTTTMGVNTYKARIQYYCHEPYYKMQTRAGSRESEQGVYTCTAQGIWKNEQKGEKIPRCLPVCGKPVNPVEQRQRIIGGQKAKMGNFPWQVFTNIHGRGGGALLGDRWILTAAHTLYPKEHEAQSNASLDVFLGHTNVEELMKLGNHPIRRVSVHPDYRQDESYNFEGDIALLELENSVTLGPNLLPICLPDNDTFYDLGLMGYVSGFGVMEEKIAHDLRFVRLPVANPQACENWLRGKNRMDVFSQNMFCAGHPSLKQDACQGDSGGVFAVRDPNTDRWVATGIVSWGIGCSRGYGFYTKVLNYVDWIKKEMEEED | Increases in fluorescent intensity were observed only in samples containing recombinant GzmB | – | – | –
2 | Cls (Sigma) (enzyme, UniProt P09871 16-688, looked up, species assumed) Complement C1s subcomponent: EPTMYGEILSPNYPQAYPSEVEKSWDIEVPEGYGIHLYFTHLDIELSENCAYDSVQIISGDTEEGRLCGQRSSNNPHSPIVEEFQVPYNKLQVIFKSDFSNEERFTGFAAYYVATDINECTDFVDVPCSHFCNNFIGGYFCSCPPEYFLHDDMKNCGVNCSGDVFTALIGEIASPNYPKPYPENSRCEYQIRLEKGFQVVVTLRREDFDVEAADSAGNCLDSLVFVAGDRQFGPYCGHGFPGPLNIETKSNALDIIFQTDLTGQKKGWKLRYHGDPMPCPKEDTPNSVWEPAKAKYVFRDVVQITCLDGFEVVEGRVGATSFYSTCQSNGKWSNSKLKCQPVDCGIPESIENGKVEDPESTLFGSVIRYTCEEPYYYMENGGGGEYHCAGNGSWVNEVLGPELPKCVPVCGVPREPFEEKQRIIGGSDADIKNFPWQVFFDNPWAGGALINEYWVLTAAHVVEGNREPTMYVGSTSVQTSRLAKSKMLTPEHVFIHPGWKLLEVPEGRTNFDNDIALVRLKDPVKMGPTVSPICLPGTSSDYNLMDGDLGLISGWGRTEKRDRAVRLKAARLPVAPLRKCKEVKVEKPTADAEAYVFTPNMICAGGEKGMDSCKGDSGGAFAVQDPNDKTKFYAAGLVSWGPQCGTYGLYTRVKNYVDWIMKTMQENSTPRED | Increases in fluorescent intensity were observed only in samples containing recombinant GzmB | – | – | –
3 | murine Granzyme B (recombinant, Peprotech) (protein) IIGGHEVKPHSRPYMALLSIKDQQPEAICGFLIREDFVLTAAHCEGSIINVTLGAHNIKEQEKTQQVIPMVKCIPHPDYNPKTFSNDIMLLKLKSKAKRTRAVRPLNLPRRNVNVKPGDVCYVAGWGRMAPMGKYSNTLQEVELTVQKDRECESYFKNRYNKTNQICAGDPKTKRASFRGDSGGPLVCKKVAAGIVSYGYKDGSPPRAFTKVSSFLSWIKKTMKSS | – | Increases in fluorescent intensity were observed only in samples containing recombinant GzmB | Fitted kcat/KM was 1.09×10^4 M^-1s^-1 | the substrate that produced the highest rate of cleavage by recombinant GzmB
4 | mouse plasmin (HaemTech) (protein) VYLSECKTGIGNGYRGTMSRTKSGVACQKWGATFPHVPNYSPSTHPNEGLEENYCRNPDNDEQGPWCYTTDPDKRYDYCNIPECEEECMYCSGEKYEGKISKTMSGLDCQAWDSQSPHAHGYIPAKFPSKNLKMNYCRNPDGEPRPWCFTTDPTKRWEYCDIPRCTTPPPPPSPTYQCLKGRGENYRGTVSVTVSGKTCQRWSEQTPHRHNRTPENFPCKNLEENYCRNPDGETAPWCYTTDSQLRWEYCEIPSCESSASPDQSDSSVPPEEQTPVVQECYQSDGQSYRGTSSTTITGKKCQSWAAMFPHRHSKTPENFPDAGLEMNYCRNPDGDKGPWCYTTDPSVRWEYCNLKRCSETGGSVVELPTVSQEPSGPSDSETDCMYGNGKDYRGKTAVTAAGTPCQGWAAQEPHRHSIFTPQTNPRAGLEKNYCRNPDGDVNGPWCYTTNPRKLYDYCDIPLCASASSFECGKPQVEPKKCPGRVVGGCVANPHSWPWQISLRTRFTGQHFCGGTLIAPEWVLTAAHCLEKSSRPEFYKVILGAHEEYIRGLDVQEISVAKLILEPNNRDIALLKLSRPATITDKVIPACLPSPNYMVADRTICYITGWGETQGTFGAGRLKEAQLPVIENKVCNRVEYLNNRVKSTELCAGQLAGGVDSCQGDSGGPLVCFEKDKYILQGVTSWGLGCARPNKPGVYVRVSRFVDWIEREMRNN | – | Increases in fluorescent intensity were observed only in samples containing recombinant GzmB | – | –
